T1: NONO (53-312) (UniProt Q15233 53-312)
T1 sequence: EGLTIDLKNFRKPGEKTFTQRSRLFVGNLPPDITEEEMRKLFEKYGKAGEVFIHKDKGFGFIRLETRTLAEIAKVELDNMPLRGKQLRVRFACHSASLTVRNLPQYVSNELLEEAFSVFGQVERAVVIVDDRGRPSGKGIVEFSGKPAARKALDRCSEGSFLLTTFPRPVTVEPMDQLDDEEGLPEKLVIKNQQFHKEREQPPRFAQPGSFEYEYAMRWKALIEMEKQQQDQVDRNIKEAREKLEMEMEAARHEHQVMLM

T2: DHX36 (RHAU) (UniProt Q9H2U1 1-1008)
T2 sequence: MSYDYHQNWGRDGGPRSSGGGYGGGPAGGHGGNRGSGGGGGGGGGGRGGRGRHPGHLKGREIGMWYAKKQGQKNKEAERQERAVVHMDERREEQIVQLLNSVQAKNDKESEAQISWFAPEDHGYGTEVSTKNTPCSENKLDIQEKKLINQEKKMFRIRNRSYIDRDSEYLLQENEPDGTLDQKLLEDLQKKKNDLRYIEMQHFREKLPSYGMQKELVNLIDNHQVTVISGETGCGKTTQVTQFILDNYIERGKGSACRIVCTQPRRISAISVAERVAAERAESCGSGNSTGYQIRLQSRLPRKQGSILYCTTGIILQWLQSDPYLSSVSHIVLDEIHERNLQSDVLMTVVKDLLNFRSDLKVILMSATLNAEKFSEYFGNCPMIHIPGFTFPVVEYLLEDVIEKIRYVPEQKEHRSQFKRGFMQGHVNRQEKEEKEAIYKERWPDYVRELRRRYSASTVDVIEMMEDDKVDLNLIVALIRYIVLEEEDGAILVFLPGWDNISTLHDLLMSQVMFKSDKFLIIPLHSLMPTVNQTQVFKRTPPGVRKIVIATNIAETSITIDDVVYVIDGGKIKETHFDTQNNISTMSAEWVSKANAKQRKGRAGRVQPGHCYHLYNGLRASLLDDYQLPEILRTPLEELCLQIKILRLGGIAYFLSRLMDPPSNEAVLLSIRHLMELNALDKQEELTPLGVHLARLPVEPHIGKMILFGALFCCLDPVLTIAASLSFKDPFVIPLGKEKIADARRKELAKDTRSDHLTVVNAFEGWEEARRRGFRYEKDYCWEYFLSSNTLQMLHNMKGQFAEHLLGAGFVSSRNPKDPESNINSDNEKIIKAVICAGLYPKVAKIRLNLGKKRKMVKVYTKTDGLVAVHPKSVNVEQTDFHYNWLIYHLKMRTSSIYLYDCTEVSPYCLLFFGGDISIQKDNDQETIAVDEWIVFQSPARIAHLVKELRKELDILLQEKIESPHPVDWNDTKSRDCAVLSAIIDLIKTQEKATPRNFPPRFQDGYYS

T3: RHAU53 peptide (UniProt Q9H2U1 53-105)
T3 sequence: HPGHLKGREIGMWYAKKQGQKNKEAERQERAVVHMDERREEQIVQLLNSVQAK


How the values were obtained:
NONO (53-312) [1] = target: T1, NONO (53-312); experiment: EMSA
DHX36 (RHAU) = target: T2, DHX36 (RHAU); experiment: MST
RHAU53 peptide = target: T3, RHAU53 peptide; experiment: MST competition
NONO (53-312) [2] = target: T1, NONO (53-312); experiment: filter binding

Row | Binder | Kd (NONO (53-312) [1]) [nM] | Kd (DHX36 (RHAU)) [nM] | IC50 (RHAU53 peptide) [nM] | binding result (NONO (53-312) [2])
1 | AGGGGAGGGAAAGGGGGAAAGCGGGC (structured_RNA) [MALAT1 rG4_09 (FAM)] | 80.9 ± 18.1 |  |  | 
2 | AGGGUGGGCUUUUGUUGAUGAGGGAGGGGA (structured_RNA) [MALAT1 rG4_04 (FAM)] | 46.9 ± 12.1 | 130 ± 16 | 621 ± 95.3 | 
3 | AGAAGAGAGAAAGAAAGAAAGCGAGC (ssRNA) [MALAT1 rG4_09 MUT (biotin)] |  |  |  | no binding

Source: PMC8754639
